In PMC6447540:

Target: SAV1 (UniProt Q9H4B6)
Test: biotin-peptide pull-down from cell lysate
Settings: reference: unphosphorylated Akt1 peptide; sites Y26

binding against the reference: weaker
Substance: Akt1 PH domain peptide (from UniProt P31749) pY26 Akt1 peptide
